Results taken from article PMC10844976 (The Journal of Biological Chemistry, 2024).
“And” between values parts separate entries of the source, which are not always exact repeats. Equal entries are not always repeated.

Legend:
[1] = molecular target: M-related protein Mrp193 (mrp type 193), from GAS strain NS80 (Streptococcus pyogenes); assay: SPR
[2] = molecular target: M-related protein (Mrp), mrp type 298, from GAS strain 939–03 (Streptococcus pyogenes); assay: SPR
[3] = molecular target: M-related protein (Mrp), mrp type 174, from GAS strain NS452 (Streptococcus pyogenes); assay: SPR
[4] = molecular target: M-related protein (Mrp), mrp type 115, from GAS strain NS730 (Streptococcus pyogenes); assay: SPR
[5] = molecular target: M-related protein Mrp71 (mrp type 71), from GAS strain NS192 (Streptococcus pyogenes); assay: SPR
[6] = molecular target: M-related protein Mrp105 (mrp type 105), from GAS strain NS210 (Streptococcus pyogenes); assay: SPR
[7] = molecular target: M-related protein (Mrp), mrp type 8, from GAS strain NS931 (Streptococcus pyogenes); assay: SPR
[8] = molecular target: M-related protein (Mrp), mrp type 52, from GAS strain PRS66 (Streptococcus pyogenes); assay: SPR
[9] = molecular target: M-related protein Mrp216 (mrp type 216), from GAS strain NS88.2 (Streptococcus pyogenes); assay: SPR
[10] = molecular target: M54 protein (Streptococcus pyogenes); assay: mass photometry
[11] = molecular target: M1 protein (Streptococcus pyogenes) (UniProt Q99XV0); assay: mass photometry
[12] = molecular target: M-related protein Mrp216 (mrp type 216), from GAS strain NS88.2 (Streptococcus pyogenes); assay: mass photometry
[13] = molecular target: the molecule itself; assay: mass photometry

**Q.** Which results are given for human IgG2 (antibody)?
**A.** Kd [1]: 8.17 nM; Kd [2]: 19.4 nM; Kd [3]: 11 nM; Kd [4]: 13.5 nM; Kd [5]: 15.4 nM; Kd [6]: 7.03 nM; Kd [7]: 21.8 nM; Kd [8]: 6.4 nM; Kd [9]: 8.12 nM

**Q.** For M54 protein (natural protein), which stoichiometry N [10] is on record?
**A.** Its stoichiometry N is 2 and 4.

**Q.** human IgG4 (antibody) was tested. Which Kd [1] did it give?
**A.** The Kd was 6.5 nM.

**Q.** And the Kd [2]?
**A.** The Kd was 13.4 nM.

**Q.** What about the Kd [3] of the same molecule?
**A.** Its Kd is 11.9 nM.

**Q.** And the Kd [4]?
**A.** The Kd was 7.4 nM.

**Q.** What about the Kd [5] of the same molecule?
**A.** The Kd was 15.2 nM.

**Q.** And the Kd [6]?
**A.** Its Kd is 10.6 nM.

**Q.** And the Kd [7]?
**A.** Its Kd is 11.9 nM.

**Q.** What about the Kd [8] of the same molecule?
**A.** Its Kd is 9.02 nM.

**Q.** What about the Kd [9] of the same molecule?
**A.** Its Kd is 4.3 nM.

**Q.** Which Kd [1] does the source give for human IgG3 (antibody) here?
**A.** Its Kd is 201 nM.

**Q.** And the Kd [2]?
**A.** The Kd was 226 nM.

**Q.** What about the Kd [3] of the same molecule?
**A.** The Kd was 152 nM.

**Q.** And the Kd [4]?
**A.** The Kd was 244 nM.

**Q.** And the Kd [5]?
**A.** Its Kd is 220 nM.

**Q.** What about the Kd [6] of the same molecule?
**A.** Its Kd is 208 nM.

**Q.** And the Kd [7]?
**A.** Its Kd is 256 nM.

**Q.** What about the Kd [8] of the same molecule?
**A.** Its Kd is 145 nM.

**Q.** And the Kd [9]?
**A.** Its Kd is 302 nM.

**Q.** human IgG1 (antibody) was tested. Which Kd [2] did it give?
**A.** Its Kd is 16 nM.

**Q.** What about the Kd [3] of the same molecule?
**A.** Its Kd is 9.71 nM.

**Q.** And the Kd [4]?
**A.** The Kd was 13.4 nM.

**Q.** And the Kd [5]?
**A.** The Kd was 11.1 nM.

**Q.** What about the Kd [7] of the same molecule?
**A.** Its Kd is 15.3 nM.

**Q.** And the Kd [8]?
**A.** Its Kd is 3 nM.

**Q.** And the Kd [9]?
**A.** Its Kd is 5.4 nM.

**Q.** What does the source list for “human IgG (pooled mixture of all IgG subclasses found in serum) (antibody)”?
**A.** stoichiometry N (IgG per M1 dimer) [11]: 1; stoichiometry N (IgG per Mrp216 dimer) [12]: 1; Kd [1]: 6.4 nM; Kd [2]: 9.3 nM; Kd [3]: 8.8 nM; Kd [4]: 10.2 nM; Kd [5]: 11.1 nM

**Q.** How did the stoichiometry N [12] turn out when “M-related protein Mrp216 (mrp type 216), from GAS strain NS88.2 (natural protein)” was run?
**A.** The stoichiometry N was 2.

B1: M1 protein (natural protein)
chain: NGDGNPREVIEDLAANNPAIQNIRLRYENKDLKARLENAMEVAGRDFKRAEELEKAKQALEDQRKDLETKLKELQQDYDLAKESTSWDRQRLEKELEEKKEALELAIDQASRDYHRATALEKELEEKKKALELAIDQASQDYNRANVLEKELETITREQEINRNLLGNAKLELDQLSSEKEQLTIEKAKLEEEKQISDASRQSLRRDLDASREAKKQVEKDLANLTAELDKVKEDKQISDASRQGLRRDLDASREAKKQVEKDLANLTAELDKVKEEKQISDASRQGLRRDLDASREAKKQVEKALEEANSKLAALEKLNKELEESKKLTEKEKAELQAKLEAEAKALKEQLAKQAEELAKLRAGKASDSQTPDTKPGNKAVPGKGQAPQAGTKPNQNKAPMKETKRQLPST
**Q.** Which “stoichiometry N” value [13] does the source give for B1 here?
**A.** Its value is 2.
